The values below come from patent US7005283B2, “Cytochrome P450 oxygenases and their uses” (Washington State University Research Foundation, priority 1999, dated 2006).

Data set [1] is classed as binding, Saccharomyces cerevisiae. The source says:
CO-sensor of the 19 full-length cytochrome P450 clones from Taxus, thus far obtained, ten have yielded detectable CO-difference spectra (Table 2). […] These alternative expression systems for cytochrome P450 genes include the yeast Pichia pastoris, for which expression vectors and hosts are commercially available (Invitrogen, Carlsbad, Calif.), as well as established E. coli and baculovirus-insect cell systems for which general expression procedures have been described (Barnes, Methods Enzymol. 272:1–14, 1996;Gonzalez et al., Methods Enzymol. 206:93–99, 1991;Lee et al., Methods Enzymol. 272:86–98, 1996;and Lupien et al., Arch. Biochem. Biophys. 368:181–192, 1999).
Appropriate restriction sites were introduced by standard PCR methods (Innis et al., PCR Protocols: A Guide to Methods and Applications, Academic Press, San Diego, Calif., 1990) immediately upstream of the ATG start codon and downstream of the stop codon of all full-length cytochrome P450 clones. These modified amplicons were gel-purified, digested with the corresponding restriction enzymes, and then ligated into the expression vector pYeDP60. The vector/insert junctions were sequenced to ensure that no errors had been introduced by the PCR construction. Verified clones were transformed into yeast using the lithium acetate method (Ito et al., J. Bacteriol. 153:163–168, 1983). Isolated transformants were grown to stationary phase in SGI medium (Pompon et al., Methods Enzymol. 272:51–64, 1996), and used as inocula for a large-scale expression culture grown in YPL medium (Pompon et al., Methods Enzymol. 272:51–64, 1996). Approximately 24 hours after induction of cytochrome P450 expression with galactose (to 10% final concentration), a portion of the yeast cell culture was harvested by centrifugation. One-half of the culture was treated with carbon monoxide, and the cytochrome P450 CO-difference spectrum was recorded directly (using untreated cells as a control) by spectrophotometry (Omura and Sato, J. Biol. Chem. 239:2370–2378, 1964).

Data set [2] is described as follows: In vivo assay of yeast cells expressing recombinant oxygenases, radio-HPLC, substrate taxadiene. The data set is classed as cell-based, Saccharomyces cerevisiae. As to conditions: assayed with Taxadiene; graded symbols, key not given. The source says: (§1) Transformed yeast cells that fimctionally express a recombinant cytochrome P450 gene from Taxus (by CO-difference spectrum) can be tested in vivo for their ability to oxygenate (hydroxylate or epoxidize) taxoid substrates fed exogenously to the cells, thereby eliminating the need for microsome isolation for preliminary in vitro assays.
(§2) Accordingly, several clones of the available full-length clones were expressed in induced yeast host cells.
(§3) Isolated transformants for each full-length cytochrome P450 clone shown to express a functional enzyme by CO-difference spectrum (ten clones) were grown to stationary phase in 2 mL SGI medium at 30° C. and used to inoculate a 10-mL expression culture (in YPL medium). Approximately 8 hours after induction, cells were harvested by centrifugation (10 minutes at 1500 rpm), and the pellet was resuspended in 2 mL of fresh YPL medium.
(§4) To eliminate additional complication and uncertainty associated with microsome isolations for in vitro assays, 10^6 dpm of [20-^3H3]taxa-4(5),11(12)-diene (16 Ci/mol) or [20-^3H2]taxa-4(20),11(12)-diene-5-α-ol (4.0 Ci/mol), or other taxoid substrate were added directly to the cell suspension to assay conversion in vivo. After 12 hours of incubation at 30° C. with agitation (250 rpm), the mixture was treated for 15 minutes in a sonication bath and extracted 3 times with 2 mL diethyl ether to insure isolation of the biosynthetic products. These ether extracts, containing residual substrate and derived product(s), were concentrated to dryness, resuspended in 200 μL of CH3CN, and filtered. These samples were analyzed by radio-HPLC (Hefner et al., Chemistry and Biology 3:479–489, 1996) using a 4.6 mm i.d.×250 mm column of Econosil C18, 5 μ (Alltech, Deerfield, Ill.) with a gradient of CH3CN in H2O from 0% to 85% (10 minutes at 1 mL/minute), then to 100% CH3CN over 40 minutes.

Data set [3] is described as follows: In vivo assay of yeast cells expressing recombinant oxygenases, radio-HPLC, substrate taxadien-5α-ol. The data set is classed as cell-based, Saccharomyces cerevisiae. As to conditions: assayed with Taxadien5αol; graded symbols, key not given.
Description: as §1, §2, §3, §4

B1: clone F10: Taxus cuspidata cytochrome P450, outlying full-length clone, SEQ ID NO: 55 (nt) / 68 (aa) (protein, listed as Taxus cuspidata)
chain: MAFEAATVILFTLAALLLVVIQRRRIRRHKLQGKVKAPQPPSWPVIGNLHLLTQKVPIHRILSSLSESYGPIMHLQLGLRPALVIASSDLAKECFTTNDKAFASRPRLSAGKHVGYDYKIFSMAPYGSYWRNLRKMCTIQILSATRIDSFRHIRVEEVSALIRSLFDSCQREDTPVNMKARLSDLTFSIILRMVANKKLSGPVYSEEYEEADHFNQMIKQSVFLLGAFEVGDFLPFLKWLDLQGFIAAMKKLQQKRDVFMQKLVIDHREKRGRVDANAQDLIDVLISATDNHEIQSDSNDDVVKATALTMLNAGTDTSSVTIEWALAALMQHPHILSKAQQELDTHIGRSRLLEEADLHELKYLQAIVKETLRLYPAAPLLVPHEAIEDCTVGGYHVSAGTRLIVNAWAIHRDPAVWERPTVFDPERFLKSGKEVDVKGREFELIPFGSGRRMCPGMSLALSVVTYTLGRLLQSFEWSVPEGMIIDMTEGLGLTMPKAVPLETIIKPRLPFHLY
As to B1, the CO diff. spec. entry in data set [1] is “+”. In addition, the “product identified HPLC peak” value in data set [2] and in data set [3] was “No” throughout.

B2: clone F23: Taxus cuspidata cytochrome P450 oxygenase, full-length clone, SEQ ID NO: 84 (nt) / 90 (aa) (protein, listed as Taxus cuspidata)
chain: MELWNMFLPWISIATATSLTVGMASAFAIIYAPLLLSFLRLKTARRNMPPIPPGSMGMPFWGESLGYLGSWNNQSNPDVWYDTRKAKHGKIFTTHILGSPTVVMLGPDANRFILINENKLFLNSWPKSLNALIGKHALITSQGAEHKRMRRIIHSVLGPRNPETSVGRFEGLVLHHLDSDWHGGQIIQAYRQVKDMALCLAADFFMGLKPGKELETFRRHFSDFSAGLLSHPLDLPWTVFGKAKRARAAMVTQIFSQIRLHRTSMHKSGEEGGNFLDMVLGSQEKGGDLRLSEEEIADNLMGLLTGGQDTTASALATILKHLSLSPHLLQRLRKECEKLRDNKEAGGPLTWSEIKSVGYLHNVISEGLRMVAPINGGFKKAKVDVVYGGYTIPKGWKVHYSVRQTNNKEEYFPSPERFDPDRFNERHEPFSFIPFGQGNRMCPGNEFARLEMELFLYHLVLRYDWELMEADERTNMYFIPHPVHSLPLLLKHVPPT
B2: in data set [1], the CO diff. spec. entry is given as “−”. Besides, the “product identified HPLC peak” value in data set [2] and in data set [3] was “No” in each case.

B3: clone F19: Taxus cuspidata cytochrome P450 oxygenase, full-length clone, SEQ ID NO: 50 (nt) / 63 (aa) (protein, listed as Taxus cuspidata)
chain: MDAFNILKGPAAKLNGVVQLGSYTDRILSITVVAFITILLLLMLRWKSQSSVKLPPGNFGFPLIGETLQLLRAFRSNTTQQFFDERQKKFGCVFKTSLVGERTVVLCGPSGNRLVLANQNKVVESSWPSAFIKLIGEDSIANTNGEKHRILRAALLRYLGPGSLQNYVGKMRSEIEHHINEKWKGKDEVKVLDLVRKNVFSVATALFFGVNDEERKRIRPPSILRKLHFAGSFSIPLDFPGTSYRRALEARLKLDKILSSLIERRRSDLRSGLASGNEDLVSVLLTFKDEGGNPLTDKEILDNFSGLLHASYDTTTSALTLTFKLMSSSAECYDKVVQEQLRIVSNKKEGEEISLKDLKDMKYTWQVVQETLRMFPPLFGSFRKTIADIQYDGYTIPKGWKVLWATYTTHGRDEYFSEPQKFRPSRFEEGGKHVAPYTFLPFEGGERTCPGYEFSKTHILLFIHQFVKTFTGYIPLDPNESISANPLPPLPANGFPVKLFQRS
On to B3, for which the CO diff. spec. entry in data set [1] is “−”. The “product identified HPLC peak” value in data set [2] and in data set [3] was “No” throughout.

B4: clone F42: Taxus cuspidata cytochrome P450 oxygenase, full-length clone, SEQ ID NO: 45 (nt) / 58 (aa) (protein, listed as Taxus cuspidata)
chain: MDSFSFLKSMEAKFGQVIHRDQSSSTALLSLAFTAAVAIFLVLLFRFKSRPSTNFPPGNFGFPFIGETIQFLRALRSESPHMFFDERLKKFGRVFKTSLTGHPTAVFCGPAGNRFIYSNEHKLVQSSGPNSFVKLVGQQSIVTKTGEEHRIFLGVLNEFLGPHALQSYTPKMSSKIQENINKHWKGKDEVNMLPSIRQLVFSISSSLFFDINDEDQQEQLKTLLETILVGTLSVPLDIPGSNFRKALRARSKLDEILSRLIESRRKDMRSGIASTSKNLLSVLLAFKDERGNPLTDTEILDNFSFMLHASYDTTVSPTVCIFKLLSANPECYEKVVQEQLGILGNKKDGEEMCWNDLKAMKYTWQAAQETMRLFPPAFGSFRKVIADIHHDGYIIPKGWKAMVTNYSTSRKEEYFDEPDNFKPSRFGDGKYVAPYTFLPFGAGIRICPGWEFAKLEMLLFIHHFVKNFSGYLPLDTKEKISGDPFPPLPKNGFPIKLFPRT
Regarding B4, in data set [1], the CO diff. spec. result is on record as “−”. Also, the “product identified HPLC peak” value in data set [2] and in data set [3] was “No” in each case.

B5: clone F56: Taxus cuspidata cytochrome P450 oxygenase, full-length clone, SEQ ID NO: 49 (nt) / 62 (aa) (protein, listed as Taxus cuspidata)
chain: MDTLIQIQSSPDFLSFTLTAFLGVVVLLIFRYKHRSALKLPPGNLGLPFIGETITFASQPPQKFLNERGKKFGPVFKTSLIGHPTVVLCGSSGNRFLLSNEEKLVRMSLPNSYMKLLGQDSLLGKTGQEHRIVRTALGRFLGPQELQNHVAKMSSDIQHHINQKWKGNDEVKVLPLIRNLVFSIATSLFFGINDEHQQERLHLLLETIVMGAVCIPLAFPGSGFRKALQARSELDGILISLMKIRRSDLRSGAASSNQDLLSVLLTFKDERGNPLTDKEILDNFSVLLHGLYDTTISPLTLIFKLMSSNTECYENVVQEQLEILSHREKGEEIGWKDLKSMKYTWQAIQETLRMFPPVYGNFRKALTDIHYDGYTIPKGWRVLCSPFTTHSNEEYFNEPDEFRPSRFEGQGKNVPSYTFIPFGGGLRICPGWEFAKTEMLLFIHYFVKTFSSYVPVDPNEKISADPLASFPVNGFSVKLFPRS
With B5, in data set [1], the CO diff. spec. result is “−”. Moreover, the “product identified HPLC peak” value in data set [2] and in data set [3] was “No” in each case.

B6: clone F55: Taxus cuspidata cytochrome P450 oxygenase, full-length clone, SEQ ID NO: 52 (nt) / 65 (aa) (protein, listed as Taxus cuspidata)
chain: METKFGQLMQLEFLPFILTPILGALVLLHLFRHRNRSSVKLPPGKLGFPVIGETIQFLRALRSQTPQKFFDDRVQKFGGVFKTSLIGNPLVVMCGPAGNRLVLSNEDKLVQLEAPNSLMKLMGQDSLLAKRQEDHRTLRAALARFLGPQALXNYMTKISSRTEHHMNEKWKGKDEVRTLPLIRELIFSNASSLFFDINDEHQQERLHHLLEAVVVGSMSIPLDFPGTRLRKALQARSKLDEILSSLIKSRRKDLVSGIASDDQDLLSVLLTFKDERGNPLTDKEILDNFSLLLHASYDTTVSPMVLTLKLLSSNPECYEKVVQEQLGIVANKRIGEEISWKDLKAMKYTWQVVQETLRMFPPLFGSFRKAMVDIDYDGYTIPKGWMILWTTYGTHLREEYFNEPLKFRPSRFEEDGRVTPYTFIPFGGGARTCPGWEFSKTEILLFIHHFVRTFSSYLPVDSNEKISADPFPPLPANGFSIKLSADPFPPLPANGFSIKLFPRSQSN
modifications: not fully specified; (1)..(507) “Xaa” equals any peptide
In the case of B6, in data set [1], the CO diff. spec. entry is “−”. Also, the “product identified HPLC peak” value in data set [2] and in data set [3] was “No” throughout.
